Laboratory results: patent publication US11175289B2, “Application of TRPM8 protein, related peptide fragment and their antibodies” (priority 2016, dated 2021)
Entries after “also recorded” stand apart in the source; their conditions may differ.

Key:
[1] = test system: T lymphocyte in prostate of the modeling animal; assay: CD3 immunofluorescence staining of prostate tissue; type: in vivo, rat; conditions: SD rats immunized with antigen combined with CFA
Description: (§1) Experiment is designed and performed as follows. Firstly, pure TRPM8 protein is combined with Complete Freund's adjuvant (CFA) to establish an animal model of CP/CPPS. The animal model is compared with a prostatein homogenate modeling method. Meanwhile, TRPM8 in prostatein homogenate is removed by immunomagnetic beads; wherein the prostatein homogenate is molded for serving as a negative control. HE staining method is utilized to evaluate the severity of inflammation in prostate tissue of each modeling group of animal, and the severity of inflammation in prostate tissue is performed with pathological score. CD3 immunofluorescence method is adopted to observe infiltrating of T lymphocyte in prostate of the modeling animal.
In addition, the prostate tissue sections of each group of animals to be tested are taken, baked in an oven for 30 minutes at 60° C., then subjected to CD3 immunofluorescence, and finally added with anti-fluorescence quenching agent for sealing, observed under a microscope, wherein photos are taken.
In order to improve the inflammatory cell containing a plurality of T-lymphocytes, the CD3 molecules are performed with immunofluorescence staining. The results are shown in FIG. 3: A: control blank group; B: protein homogenate group; C: pure TRPM8 protein group; D: TRPM8 protein free homogenate group.

[2] = test system: prostate tissue of SD rats; assay: CP/CPPS animal model by immunization with antigen plus CFA; HE staining and pathological score of prostate; type: in vivo, rat
Description: as §1
Take 40 8-week-old SPF level male SD rats, with weights at a range of 250±20 g. The rats are purchased from Shanghai Sijie laboratory Co., Ltd with a license number of SCXK (Shanghai) 2012-0006. Under an aseptic condition, prostate of an SD rats is taken to prepare prostatein homogenate and TRPM8 removed homogenate protein. Grouping of immune animals in experiments is as follows. 40 8-week-old SD rats are randomly classified into 4 groups, i.e., a homogenate protein group, a TRPM8 removed homogenate protein group, a pure TRPM8 protein group and a control group; wherein each group comprises 10 rats. After 8 weeks of immune, each group of the rats are injected with 10% chloral hydrate on abdomen for anesthesia, and plasma and prostate of each group of rats are respectively collected. Preparation of prostate pathological section: the paraffin embedded prostate sections of the rats in each experimental group are sent to a drying oven, heated under 60° C. for 30 min. […]
According to HE staining result, prostatitis degree of each group of rats are pathologically scored under standards as follows. […]
Each prostate section is scored by three associate professors in pathology according to the standards mentioned above under a randomized and double-blind principle, and an average value calculated is a histological score indicating degree of the prostatitis of the animal. […]

B1: TRPM8 protein: TRPM8 protein purchased from ProteinTech Group; combined with CFA to immunize SD rats (protein)
chain: MSFRAARLSMRNRRNDTLDSTRTLYSSASRSTDLSYSESDLVNFIQANFKKRECVFFTKDSKATENVCKCGYAQSQHMEGTQINQSEKWNYKKHTKEFPTDAFGDIQFETLGKKGKYIRLSCDTDAEILYELLTQHWHLKTPNLVISVTGGAKNFALKPRMRKIFSRLIYIAQSKGAWILTGGTHYGLMKYIGEVVRDNTISRSSEENIVAIGIAAWGMVSNRDTLIRNCDAEGYFLAQYLMDDFTRDPLYILDNNHTHLLLVDNGCHGHPTVEAKLRNQLEKYISERTIQDSNYGGKIPIVCFAQGGGKETLKAINTSIKNKIPCVVVEGSGQIADVIASLVEVEDALTSSAVKEKLVRFLPRTVSRLPEEETESWIKWLKEILECSHLLTVIKMEEAGDEIVSNAISYALYKAFSTSEQDKDNWNGQLKLLLEWNQLDLANDEIFTNDRRWESADLQEVMFTALIKDRPKFVRLFLENGLNLRKFLTHDVLTELFSNHFSTLVYRNLQIAKNSYNDALLTFVWKLVANFRRGFRKEDRNGRDEMDIELHDVSPITRHPLQALFIWAILQNKKELSKVIWEQTRGCTLAALGASKLLKTLAKVKNDINAAGESEELANEYETRAVELFTECYSSDEDLAEQLLVYSCEAWGGSNCLELAVEATDQHFIAQPGVQNFLSKQWYGEISRDTKNWKIILCLFIIPLVGCGFVSFRKKPVDKHKKLLWYYVAFFTSPFVVFSWNVVFYIAFLLLFAYVLLMDFHSVPHPPELVLYSLVFVLFCDEVRQWYVNGVNYFTDLWNVMDTLGLFYFIAGIVFRLHSSNKSSLYSGRVIFCLDYIIFTLRLIHIFTVSRNLGPKIIMLQRMLIDVFFFLFLFAVWMVAFGVARQGILRQNEQRWRWIFRSVIYEPYLAMFGQVPSDVDGTTYDFAHCTFTGNESKPLCVELDEHNLPRFPEWITIPLVCIYMLSTNILLVNLLVAMFGYTVGTVQENNDQVWKFQRYFLVQEYCSRLNIPFPFIVFAYFYMVVKKCFKCCCKEKNMESSVCCFKNEDNETLAWEGVMKENYLVKINTKANDTSEEMRHRFRQLDTKLNDLKGLLKEIANKIK
CD3 immunofluorescence staining of prostate stromal [1]: A large area of CD3 molecule marked by red luminescence | pathogenicity causing CP/CPPS ([2]; SD rats immunized with antigen): successfully induces generation of CP/CPPS; also recorded: strong pathogenicity causing CP/CPPS | inflammatory cell infiltration in prostate (HE staining) ([2]; SD rats immunized with antigen combined with CFA, 8 weeks): a plurality of inflammatory cell infiltration | histological score (pathological evaluation of prostatitis degree) ([2]; SD rats immunized with antigen combined with CFA, 8 weeks, score 0-3, M±SD): 2.7000±0.4830
